Here are results for 20 sequences from the DeepSol protein solubility set.

The data set can be described thus: soluble on expression in E. coli; label from the status in PepcDB or PDB records.
Take “MHHHHHHMMSETAEKAIEIWKIRRLVKQLINCHGNGTSMITLIIPPGEQISRYSNMLAEEYGTASNIKSRVNRLSVLSAITSTRERLKLYNKVPDNGLVIYCGEVIMEGNKTRKLNIDFEPFKPINTSQYLCDNKFHTEALAELLESDQRFGFIVMDGHQTLYGVVSGSAREVLQRFTVDLPKKHGRGGQSALRFARLRDEKRHNYVRKVAEGAVQHFITDDKPNVAGIVLAGSADFKTELGQSDLFDQRLQSRIIKTVDVSYGGDAGFNQAIELAADTLSNVKYVQEKKLIQRFFDEISLDSGKYCFGVVDTMNALQEGAVETLLCFADLDMIRYEFKNSEGNPVITYMTKEQEEKDSTNSFLLDKDTGAEMELVSSMLLSEWLAEHYKDYGANLEFVSDRSQEGMQFVKGFGGIGAVMRYQLDLSMLDPESDEFYSDSD”: the “soluble on expression in E. coli” value was “soluble”.

On to “MQITQGQRIPLSTLIQGNDLTLSIVIKSAHVIDYVCFGVDANGKLSDDRYMIFFNQPTSPCNSVKQANGGDFQLALDSLPASIDRLVFTASIDGAGVMSDIQASHFSIQHQGREVARGEFSGATFAAEKAIMVADIYRKNGEWRIASNLQGYNAGLDALVGHFGGVADAPPAAPAAPARISLEKKIADAAPQLISLAKKAQVSLEKAKLTDTKARVGLVLDASGSMNPQYTRGHVQEVVDRLIPLAVHFDDDGALDCWAFGAKPQQLNAITLKNFQNFIKTDHGGWKDWELGSRINDEPKAMRMVIDYYKKSGDKTPVYILFISDGGVHQDREITKLMIEAAKLPIFWQFVGLGGRGYGILEKLDDMGGRVVDNCNFFALDRLDEVPEEKLYDLLMEEFPDWLNAAKGAGIL”, for which the “soluble on expression in E. coli” value is recorded as “not soluble”.

Turning to “MLLENFYKIIHIKEREDGKQEIEIELNPGHVLYQGHFPGQPVVPGVCTLQIIKESAEQIASQPLQYVQIASSKFLSAINPLETPLLQLFIRLEKTEEHLFKLQAEGICNGKEFIKLKAVLMASKYQLEHHHHHH”, the “soluble on expression in E. coli” value is “soluble”.

For the sequence “MGSDKIHHHHHHSDSFTYPSAYGWWSVDNGYDVNNVNSRMVSGDFNGDGKADVATFYDYGNGASRIHVFTSNGSSFDYASAYGWWNTPSGYDPKRITAVVAGDFNGDHKDDIAVIYNYGNSETRIHVFISTGSSFSYTDCNGWWNATGYDAGRITGAVAGDFNGDGKSDIATMYDYGGGETRIHVFTSTGSSFTYTGANGWWNSTGYDSNRVKGRVVAGDFNGDGKTDIAAMYDYGGSESRIHVFLSTGDSFKYTGANGWWSTTGYDANKVTGRLVAGDFNGDGKADIAAMYDYGNAETRIHVLTSNGDSFTYTGANGWWNTTGYDANRVTGRVVAGDFNGDHKADIAAFYDYGSSASRIHVFTSNADSPESSKGAELVAYAESFLGVPYVWGGADPSGFDCSGLVQYCYEHFGVDLPRTTYDQVNCGTTVTDDLQPGDLLFFGSATSPTHVAIYAGNSKMVEAPHTGANVRLVDIRSYFIAKRIFN”, the “soluble on expression in E. coli” value is on record as “not soluble”.

For “MHKPCVIIPVFDHELAVPDVVKAVRAAGLPCVLVDDASSPACAAVLRQLAQGDEIYLVCLPVNQGKGGAVMAGFREAARLGFSHALQVDADGQHDLSDIPVFLEQSRQCPEALICGYPQYDESVPKGRLYARYLTHVWVWINTLSLQIRDSMCGFRLYPLAPVLVLIDAVRIGKRMDFDSEILVRLAWRGQAMRWLPTRVHYPQDGLSHFRLFHDNALISTMHAKLFFGMLMRLPLILWRRWRSLEHHHHHH”, the “soluble on expression in E. coli” value is “not soluble”.

With “SAGINYVQNYNGNLGDFTYDESAGTFSMYWEDGVSSDFVVGLGWTTGSSNAITYSAEYSASGSASYLAVYGWVNYPQAEYYIVEDYGDYNPCSSATSLGTVYSDGSTYQVCTDTRTNEPSITGTSTFTQYFSVRESTRTSGTVTVANHFNFWAHHGFGNSDFNYQVVAVEAWSGAGSASVTISS”, the “soluble on expression in E. coli” value was “soluble”.

Regarding “MGSDKIHHHHHHVHKSLSNAFEGFSFSGDITTDVLGLLHHHGRQDVAKHVLAVAKTAQRLAPIYDVDSEAAYSAGLLHDISLIFSTSQMLQTALDLGLEPVTAEKRVPYLLHGKLSAAMAEIVFGVKNDSLVHAVSCHTTLCARATTLDKVVFLADKMSWDQEYSPFKPELETALEKSLDEAVGVFLTWTWKQKEKLNSIHPWLIDAWKDYKVGDYA”, the “soluble on expression in E. coli” value was “not soluble”.

As for “MDGTRTSLDIEEYSDTEVQKNQVLTLEEWQDKWVNGKTAFHQEQGHQLLKKHLDTFLKGKSGLRVFFPLCGKAVEMKWFADRGHSVVGVEISELGIQEFFTEQNLSYSEEPITEIPGTKVFKSSSGNISLYCCSIFDLPRTNIGKFDMIWDRGALVAINPGDRKCYADTMFSLLGKKFQYLLCVLSYDPTKHPGPPFYVPHAEIERLFGKICNIRRLEKVDAFEERHKSWGIDCLFEKLYLLTEK”, the “soluble on expression in E. coli” value is “not soluble”.

For the sequence “ANSMLKGKVALVTGASRGIGRAIAKRLANDGALVAIHYGNRKEEAEETVYEIQSNGGSAFSIGANLESLHGVEALYSSLDNELQNRTGSTKFDILINNAGIGPGAFIEETTEQFFDRMVSVNAKAPFFIIQQALSRLRDNSRIINISSAATRISLPDFIAYSMTKGAINTMTFTLAKQLGARGITVNAILPGFVKTDMNAELLSDPMMKQYATTISAFNRLGEVEDIADTAAFLASPDSRWVTGQLIDVSGGSCL”, the “soluble on expression in E. coli” value is on record as “soluble”.

Take “MGSDKIHHHHHHMDKPMTENPVHPAEAGPSGPADAAGKAPGLAAVESRQRMRDGTELLLRTWEPDPCMFPETVGCVLLVHGLAEHCGRYQHVAEVLCGLGLRVRAYDQRGHGASGGARMVAEHPDAYLNDLVEIHDAAVRVWKELPILLGHSMGGLVAARFATARLRPVRALVLSSPALALRLSPTMLTIHRVLLTLAPRLRVPNPIDARMLSHDAHVVARYRADPLVQTTITAGVLESFIRGMAQAQTDAPRLEAPMLMLVGGADKIVDPGGSRTFFDHAPADLREEVWFGEGYHEIFNEAEPLRSKVFAALTDWLRRHLAQPV”: the “soluble on expression in E. coli” value is recorded as “not soluble”.

Consider “MISTPPVARNIMRCMSDQLKLDQQICFQLYTGSRLMQRMYRVYFDQWGITYSQYLVLLLLWEKDRQTISELSDPLDLDSGTLSPLLRRMEANGFITREHEQSDYRKVVVCLTTRGRRLKTKAKKMNDELNDMLGFDDADLAAVTRVLEKINPSAAI”, for which the “soluble on expression in E. coli” value is “not soluble”.

For the sequence “SLSERTFNWKNKDIRAQVDVVDSKLLPTLLLRNALVLNPYVKQWLKKNIWIYQDRIVYVGHELPNRAEEIHTIDCEGKYIVPGYIEPHAHPFQIYNPQTLAEYVSQYGTTTFVNDNLFLLLQSGKKKALTILNELKKQPVQYFWWSRYDLQTEVLNEDHVLPFDVRKQWIEHPDVIQGGEMTGWPRLVDGDDLMLHCMQATKKQRKRIEGHFPGASDKTLTKMKLFGADCDHEAMTGDEVMRRLELGYYVSLRNSSIRPDVRKILQELHEKGFRYYDHFFYTTDGATPNFYKGGMTNELIRIALEEGVPAIDAYNMASFNIAKYYQMDDYLGVVGPGRLASLNILEDPLNPNPVTVLSKGTILRENGCDLKAFTKTDWHKGGLVPLELSYDMTMDDLQFSMPMGVKMRNAVIMEPYMIEIDNSMEQLSFDHDESYLTMLDRHGKWRVNTMIKGFASSVQGFVSSFTTTGDIVAIGKNKADMLLAFARMKEIGGGIVLAENGNILHEIPLALCGCASSEAYEDVLEKEQKLRDLLTERGYEFCDPIYTLLFLQSTHLPYIRITPRGIFDVMKKTVLFPSIMR”, the “soluble on expression in E. coli” value is given as “soluble”.

Take “MNYPLIFAENQRIETERLILRPVTLADAEDMYEYASDEETVRYVFLKNQTIAETRQNIAKFFMGEPLGKYGIEVKETGKMIGTIDLRVNETNNIGELGYVLNRTFWGNGYMPEAATALVELGFAKMKLMRIFALHDQDNPASGRVMEKIGFTYEGTLPNARISKGKIVTDVYRGMTLETWQNRQK”: the “soluble on expression in E. coli” value is on record as “soluble”.

In the case of “MGSDKIHHHHHHENLYFQGMSKVFVNISLSLDGFMAPEGMDMAHFSDPTYKNWGAKWGALMAWALSQQYLREKLKLGTGGETGPVNDMVRHTFERTGAHIMGKRMFEGGERGWPEEAPFHTPVYVLTHERRNPWVRPGGTTFYFVNDGPEQALALAREAAGERDIRISGGANVIQQYLNLGLVDELEIALIPVIFGGGRRLFENLHEPLPQFRIDRVLASPTATHLRYVRL”, the “soluble on expression in E. coli” value was “soluble”.

As to “MSDEDERHRKKMKRKTCTGDSKSPAKKKQKIKDKSEEKSHAVQKHDAIGGKADSTKTKVKLSGKDKDKGKISKSAHSTEWTENDKKSSSDGGKKQIKRNEKGQLLFKDHPEFTPNMTPKEVLQAGSFGGTYFRPIYSSITKKHYKDVWKELPEDWLDGLNIPEQVASSTYREKVNTYKVKCGGSLEMWESSGWIVPQDPYGWFQWYCRFYQGRRTEDDARQISRWSKCAGVKGRWRNNLITKVVRSGCAYDNVTVSPVVRQTLQHWGYKLTPEDYKQGAKRVKLK”, the “soluble on expression in E. coli” value is listed as “not soluble”.

In the case of “GITPKYTATAKVYMVSASKNSVVDLADLSIGTSLSEDYAELLHVRPIIEAINEENDLGYTYEQLNGMIDISTVEDTRILKISATSIKPEEAKTIANALAEKAVTEIPKLMGTSSPNIAERAITPKGKSSPSLKKN”, the “soluble on expression in E. coli” value is “soluble”.

As to “LEDFNVTSKVIELDVRKPTPEAAENLNIGMDEDIYYVKRVRYINGQTLCYEESYYTKSIVTYLNNEIVSHSIFHYIREGLGLKIGFSDLFLHVGQLNEEEAEYLGLEAGLPKLYIESIFHLTNGQPFDYSKISYNYEQSQ”, the “soluble on expression in E. coli” value is “not soluble”.

Take “PFMDQSGGGVTFCGGEPLLHPEFLIDILKRCGQQGIHRAVDTTLLARKETVDEVMRNCELLLIDLKSMDSTVHQTFCDVPNELILKNIRRVAEADFPYYIRIPLIEGVNADEKNIKLSAEFLASLPRHPEIINLLPYHDIGKGKHAKLGSIYNPKGYKMQTPSEEVQQQCIQILTDYGLKATIGG”: the “soluble on expression in E. coli” value is given as “soluble”.

Turning to “MSELDTVIKNAEEIAIQEDEEIIEEVIEEEQVPWLGPTDVMEGQGEYYQSEELLEHEMVEYEDAEPYQSFLPIRDGAPYFSLNLPDLLSKAHQITQDTGVIVRLTSCFNKKCQRQVACGGCLYTIKDYVSDIQWNNWTCINPQCFGEIRTTPDFRDIREVHGHTANCPPPDEIQIAVRIAVYDTRLLAEFTDTPLENLYFGAVERLKIDCADGFVLFPPFEVVKSTLEDHRHNKIYRKRFEMQNLRDKQRKMNMTPDEVVFAENTSGMIRFRRTKPFPMSICNVCGEEISSTNLPSQDQLISHYMYTHGRRMTIERYEFKDVNTFEQYLRELNSMGKYKFKRMGLADENMFYLCSHDDRLNKTGIGRATRLQQQSCHCTAFIRVFDWRVRWKLNNLNYEQITKKSDIYTFNAVCKVEDMCMSLLNRLQDCQNPRVALGYREKIAAIVRKSTTDPGLCDEKSVEEIEKSWVLQKPIRGRPRKRVKLENGQEDGGGDLDEDDDVVMDDYEDGEENGDKKITASRRSESPKPASSSSEPPPPSTTEEASTSLADELPRVTREESTSSNTSGHVAGDVTTRSGRARKPPARLLDD”, the “soluble on expression in E. coli” value was “not soluble”.

For “SSFQTSLPRLPVPAVKDTVNRYLQSVRPLMKEEDFKRMTALAQDFAVGLGPRLQWYLKLKSWWATNYVSDWWEEYIYLRGRGPLMVNSNYYAMDLLYILPTHIQAARAGNAIHAILLYRRKLDREEIKPIRLLGSTIPLCSAQWERMFNTSRIPGEETDTIQHMRDSKHIVVYHRGRYFKVWLYHDGRLLKPREMEQQMQRILDNTSEPQPGEARLAALTAGDRVPWARCRQAYFGRGKNKQSLDAVEKAAFFVTLDETEEGYRSEDPDTSMDSYAKSLLHGRCYDRWFDKSFTFVVFKNGKMGLNAEHSWADAPIVAHLWEYVMSIDSLQLGYAEDGHCKGDINPNIPYPTRLQWDIPGECQEVIETSLNTANLLANDVDFHSFPFVAFGKGIIKKCRTSPDAFVQLALQLAHYKDMGKFCLTYEASMTRLFREGRTETVRSCTTESCDFVRAMVDPAQTVEQRLKLFKLASEKHQHMYRLAMTGSGIDRHLFCLYVVSKYLAVESPFLKEVLSEPWRLSTSQTPQQQVELFDLENNPEYVSSGGGFGPVADDGYGVSYILVGENLINFHISSKFSCPETDSHRFGRHLKEAMTDIITLFGLSSNSKK”, the “soluble on expression in E. coli” value was “soluble”.
